Measurements as given in PMC6079037, “Hydra Mesoglea Proteome Identifies Thrombospondin as a Conserved Component Active in Head Organizer Restriction” (Scientific Reports, 2018).
Ends that are not written are not given here.

B1: HsTSP1cc, synthetic peptide of the trimerizing coiled-coil domain of human TSP1 (residues 275-314 of TSP1) (peptide)
peptide: Ac-GDELSSMVLELRGLRTIVTTLQDSIRKVTEENKELANELRRGW
notes: added residue before the TSP1 stretch; human thrombospondin-1 (TSP1), coiled-coil domain, residues 275-314; added residues after the TSP1 stretch (the Trp is used to measure concentration at 280 nm); 43-mer; Made on Rink amide resin, so the C-terminus is probably an amide (surmised); source: synthetic peptide (Fmoc solid phase on Rink amide resin), purified by RP-HPLC
B2: human TSP1.V5 (thrombospondin-1 with V5 tag) (natural protein)
chain: not shown
notes: human thrombospondin-1 (TSP1); calculated monomer molecular weight of TSP1.V5 132.3 kDa

Experiments:
[1] = target: the molecule itself; test: AUC; sedimentation equilibrium; HsTSP1cc 50 uM in PBS, 20 °C, 20,000-50,000 rpm; fitted to a single, ideal species model
[2] = target: the molecule itself; test: non-reducing SDS-PAGE and immunoblot; V5-tagged proteins from conditioned media of transfected COS7 cells, collected on Talon resin, boiled in SDS sample buffer without DTT; 7% SDS-polyacrylamide gels; V5 antibody blot

Protein	stoichiometry N [1]	stoichiometry N [2]
B1	2.96 x monomer mass	–
B2	–	3
